Test results taken from the Immune Epitope Database (IEDB).

How the values were obtained:
HLA-A*02:01 = experiment: IEDB peptide-MHC binding, purified MHC/competitive/radioactivity; ≥ and ≤ were set here for values at or beyond the usual limits of such assays; settings: source organism: Lassa virus Josiah
HLA-A*68:02 = experiment: IEDB peptide-MHC binding, purified MHC/competitive/radioactivity; filed as Kd, often an IC50 or EC50 that approximates it; ≥ and ≤ were set here for values at or beyond the usual limits of such assays
HLA-A*02:06 = experiment: IEDB peptide-MHC binding, purified MHC/competitive/radioactivity; ≥ and ≤ were set here for values at or beyond the usual limits of such assays
HLA-A*02:03 = experiment: as above
HLA-A*02:02 = experiment: as above
[1] = source organism: Lassa virus Josiah
[2] = source organism: Lassa virus GA391

Row | Sequence | IC50 (HLA-A*02:01) [nM] | other results
1 | IISTFHLSI | 330 | –
2 | LIALSVLAV | 102 | –
3 | LMSIISTFHL | 113 | –
4 | GLYKQPGVPV | 89 | –
5 | VLIALSVLAV | 485 | –
6 | ILAADLEKL | 92 | –
7 | SLYKGVYEL | 47 | Kd (HLA-A*68:02; [1]): ≥ 10000 nM; IC50 (HLA-A*02:06; [1]): 395 nM; IC50 (HLA-A*02:03; [1]): 12 nM; IC50 (HLA-A*02:02; [1]): 115 nM
8 | YLISIFLHL | 14 | Kd (HLA-A*68:02; [2]): 6660 nM; IC50 (HLA-A*02:06; [2]): 10 nM; IC50 (HLA-A*02:03; [2]): 11 nM; IC50 (HLA-A*02:02; [2]): 173 nM
9 | GLYNFATCGL | 31 | –
